Common to all, as to experiment: SEC + other: SDS-PAGE
The target in experiment [1] is IgG1-Fc variant S424T (soluble) (human).
In experiment [2] the target is IgG1-Fc variant Q347E (soluble) (human).
Experiment [3] has as its target IgG1-Fc variant K360E (soluble) (human).
Experiment [4] has as its target IgG1-Fc variant N421D (soluble) (human).
The target of experiment [5] is IgG1-Fc variant S354P (soluble) (human).
For experiment [6], the target named is IgG1-Fc variant S400F (soluble) (human).
Experiment [7] has as its target IgG1-Fc variant K392R (soluble) (human).
Experiment [8] addresses IgG1-Fc variant K360Q (soluble) (human).
Experiment [9] concerns the target IgG1-Fc variant Q438K (soluble) (human).
The target of experiment [10] is IgG1-Fc variant Q438R (soluble) (human).
Experiment [11] has as its target IgG1-Fc variant Q418L (soluble) (human).
In experiment [12] the target is IgG1-Fc variant T437I (soluble) (human).

The results in this text go back to paper PMC3787792.

As usually defined, the stoichiometry N is the number of molecules, sites or subunits per partner or assembly. As to “IgG1-Fc variant S424T (soluble) (domain or fragment)”, the stoichiometry N in [1] stood at 2.

Consider “IgG1-Fc variant Q347E (soluble) (domain or fragment)”, for which the stoichiometry N in [2] is 2.

For “IgG1-Fc variant K360E (soluble) (domain or fragment)”, the stoichiometry N in experiment [3] is 2.

On to “IgG1-Fc variant N421D (soluble) (domain or fragment)”, for which, in [4], the stoichiometry N came out at 2.

With “IgG1-Fc variant S354P (soluble) (domain or fragment)”, in experiment [5], the stoichiometry N turned out to be 2.

With “IgG1-Fc variant S400F (soluble) (domain or fragment)”, in [6], the stoichiometry N was 2.

For “IgG1-Fc variant K392R (soluble) (domain or fragment)”, the stoichiometry N in experiment [7] was 2.

For the substance “IgG1-Fc variant K360Q (soluble) (domain or fragment)”, the stoichiometry N in [8] amounted to 2.

In the case of “IgG1-Fc variant Q438K (soluble) (domain or fragment)”, the stoichiometry N in experiment [9] came to 2.

“IgG1-Fc variant Q438R (soluble) (domain or fragment)”: in experiment [10], the stoichiometry N amounted to 2.

As for “IgG1-Fc variant Q418L (soluble) (domain or fragment)”, in [11], the stoichiometry N is 2.

Turning to “IgG1-Fc variant T437I (soluble) (domain or fragment)”, the stoichiometry N in experiment [12] was 2.
